Results from paper PMC6399291.
Each block holds one substance with its values, some of them ahead of it.

Assays:
[1] = molecular target: CDK4 (UniProt P11802); assay: reciprocal co-IP, anti-GFP or anti-CDK4; settings: reference: wild type; sites S351,S377
[2] = molecular target: CDK4 (UniProt P11802); assay: glutathione-bead pull-down from co-transfected cells, anti-Flag blot; settings: sites S351,S377
[3] = molecular target: 14-3-3β (UniProt P31946); assay: GFP-14-3-3β IP, anti-myc blot; settings: reference: wild type; sites S351,S377
Sequence of UniProt P31946 (P31946 whole entry, looked up): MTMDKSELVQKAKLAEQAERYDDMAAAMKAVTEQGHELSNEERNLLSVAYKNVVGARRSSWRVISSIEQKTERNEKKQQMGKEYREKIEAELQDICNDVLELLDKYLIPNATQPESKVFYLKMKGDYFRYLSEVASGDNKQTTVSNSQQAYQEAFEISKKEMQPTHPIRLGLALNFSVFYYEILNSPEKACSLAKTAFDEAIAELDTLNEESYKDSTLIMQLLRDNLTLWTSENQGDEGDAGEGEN

Sequence of UniProt P11802 (P11802 whole entry, looked up): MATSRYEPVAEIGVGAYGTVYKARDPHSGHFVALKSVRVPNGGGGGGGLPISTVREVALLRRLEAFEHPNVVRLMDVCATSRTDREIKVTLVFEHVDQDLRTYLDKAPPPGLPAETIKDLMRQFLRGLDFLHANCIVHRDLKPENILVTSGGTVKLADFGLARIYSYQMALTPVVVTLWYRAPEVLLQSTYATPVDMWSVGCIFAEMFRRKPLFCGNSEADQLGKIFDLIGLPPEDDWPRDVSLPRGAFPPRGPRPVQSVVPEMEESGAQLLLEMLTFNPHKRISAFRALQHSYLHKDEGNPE

- binding against the reference [1]: weaker
Substance: PIKE-A (from UniProt Q99490-2) SA

- binding against the reference ([2]; reference: wild type + myc-AMPKα T172A): weaker
Substance: PIKE-A (from UniProt Q99490-2) SA + myc-AMPKα T172A

- binding against the reference ([2]; reference: wild type + myc-AMPKα T172D): weaker
Substance: PIKE-A (from UniProt Q99490-2) SA + myc-AMPKα T172D

- binding against the reference [3]: weaker
Substance: PIKE-A (from UniProt Q99490-2) S351/377A (SA)
